This passage reports Kd results from article PMC6770577, “TRPM6 N-Terminal CaM- and S100A1-Binding Domains” (International Journal of Molecular Sciences, 2019).

The assay addresses T1, S100A1 (Homo sapiens), P23297.
T1 chain: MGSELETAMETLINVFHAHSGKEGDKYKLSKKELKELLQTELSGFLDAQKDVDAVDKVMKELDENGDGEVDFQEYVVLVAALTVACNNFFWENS
The assay is described as follows: steady-state fluorescence anisotropy. The following applies: modification not given. (In general: In fluorescence polarisation assays a small probe gives low polarisation when free and higher when bound to something large.)

Turning to LIGRAYASNYTAAHFA [TRPM6np K532A/R531A/R535A/R526A 520-535, Q9BX84], the dissociation constant (Kd) was determined as 130 µM. Consider LIGRAYRSNYTAAHFR [TRPM6np K532A/R531A 520-535, Q9BX84], for which the dissociation constant Kd came to 50.2 µM. LIGRAYRSNYTAAHFA [TRPM6np K532A/R531A/R535A 520-535, Q9BX84] came in with a Kd of 81.8 µM. The value for LIGRAYRSNYTRAHFR [TRPM6np K532A 520-535, Q9BX84] was 24.8 µM.

The term Kd denotes the constant that tells how readily two partners part at equilibrium. Higher therefore signals a looser complex.
